Measured values reported in patent US11578136B2, “Compositions and methods for treating cancer” (INNATE PHARMA, priority 2017, dated 2023).

T1: soluble recombinant human CD39 protein (Homo sapiens, UniProt P49961)
T1 construct: made in house; host or cells: CHO cells
T1 sequence (P49961 with tags, fused parts or gaps): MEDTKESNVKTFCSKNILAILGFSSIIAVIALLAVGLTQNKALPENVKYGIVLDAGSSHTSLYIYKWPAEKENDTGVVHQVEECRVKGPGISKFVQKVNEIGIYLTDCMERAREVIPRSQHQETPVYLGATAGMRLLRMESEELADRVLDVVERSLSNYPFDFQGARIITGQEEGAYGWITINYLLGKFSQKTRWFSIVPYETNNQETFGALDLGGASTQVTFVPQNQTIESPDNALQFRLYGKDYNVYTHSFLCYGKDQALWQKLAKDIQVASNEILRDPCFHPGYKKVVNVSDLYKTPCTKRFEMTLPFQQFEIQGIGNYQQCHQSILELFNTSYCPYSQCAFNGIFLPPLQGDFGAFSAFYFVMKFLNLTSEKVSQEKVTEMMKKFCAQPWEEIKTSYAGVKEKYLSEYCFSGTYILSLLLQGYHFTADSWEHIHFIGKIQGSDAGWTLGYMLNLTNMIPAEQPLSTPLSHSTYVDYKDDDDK


Experiments:
[1] = test system: NTPDase1, NTPDase3, NPP1 or mouse NTPDase8; details: not specific for CD39; cited from earlier work
[2] = molecular target: T1, soluble recombinant human CD39 protein; assay: Inhibition of the enzymatic activity of soluble CD39 (Cell Titer Glo); assay type: biochemical; details: result in words; 400 ng/ml sCD39, 20 μM ATP
Description: The inhibition by antibodies of the enzymatic activity of soluble CD39 protein produced was evaluated using Cell Titer Glo™ (Promega, reference G7571) that allows assessment of ATP hydrolysis through use of a reagent that generates a luminescent signal proportional to the amount of ATP present. In this way, inhibition of the soluble-CD39-meidatd ATP hydrolysis can be assessed. Briefly, dose ranges of anti-CD39 antibodies from 100 μg/ml to 6×10^−3 μg/ml were incubated with 400 ng/ml of soluble recombinant human CD39 protein having the amino acid sequence described in the Methods section (SEQ ID NO: 45), for 1 h at 37° C. 20 μM ATP was added to the plates for 30 additional minutes at 37° C. before addition of CTG (Cell Titer Glo) reagent. Emitted light was quantified using an Enspire™ luminometer after a short incubation period of 5 min in the dark. Anti-CD39 antibody efficacy was determined by comparing emitted light in presence of antibody with ATP alone (maximal light emission) and ATP together with soluble CD39 protein (minimal light emission).

[3] = test system: CD39 mutants transfected in Hek-293T cells; assay: Epitope mapping: binding to CD39 mutants by flow cytometry; parameters: species or system human
Description: CD39 mutants were generated by PCR. The sequences amplified were run on agarose gel and purified using the Macherey Nagel PCR Clean-Up Gel Extraction kit (reference 740609). The purified PCR products generated for each mutant were then ligated into an expression vector, with the ClonTech InFusion system. The vectors containing the mutated sequences were prepared as Miniprep and sequenced. After sequencing, the vectors containing the mutated sequences were prepared as Midiprep using the Promega PureYield™ Plasmid Midiprep System. HEK293T cells were grown in DMEM medium (Invitrogen), transfected with vectors using Invitrogen's Lipofectamine 2000 and incubated at 37° C. in a CO2 incubator for 48 hours prior to testing for transgene expression. The targeted amino acid mutations in the table 1 below are shown using numbering of SEQ ID NO: 1.
In order to define the epitopes of anti-CD39 antibodies, we designed CD39 mutants defined by substitutions of amino acids exposed at the molecular surface over the surface of CD39. Mutants were transfected in Hek-293T cells, as shown in the table 1, using numbering of SEQ ID NO: 1.
Dose-ranges of I-394 (10-2.5-0.625-0.1563-0.0391-0.0098-0.0024-0.0006 μg/ml) are tested on the 20 generated mutants by flow cytometry. […] Mutant 5 contains amino acid substitutions at residues Q96, N99, E143 and R147.
Mutants were transfected in Hek-293T cells, as shown in the table 1, using numbering of SEQ ID NO: 1. Dose-ranges of antibodies I-394 were tested on the 20 mutants by flow cytometry. […] Mutant 19 includes substitutions at residues R138, M139 and E142. The core epitope of I-394 thus includes one or more (or all of) residues R138, M139 and E142.
Mutants were transfected in Hek-293T cells, as shown in the table 1, using numbering of SEQ ID NO: 1.Dose-ranges of test antibodies (10-2.5-0.625-0.1563-0.0391-0.0098-0.0024-0.0006 μg/ml) are tested on the 20 generated mutants by flow cytometry.

Molecule | type of inhibition of NTPDases [1] | inhibition of the enzymatic activity of soluble CD39 protein [2] | binding to mutant 11 of CD39 ([3]; mutant 11: N371K, L372K, E375A, K376G, V377A, insertion 377V) | binding to any other mutant of the 20 CD39 mutants ([3]; remaining mutants of Table 1)
CCN(CC)c1ncnc2c1ncn2[C@@H]1O[C@H](COP(=O)(O)OP(=O)(O)C(Br)(Br)P(=O)(O)O)[C@@H](O)[C@H]1O [ARL67156] | weak competitive inhibitor |  |  | 
I-399: anti-CD39 antibody, VH SEQ ID NO: 30, VL SEQ ID NO: 31 (antibody, listed as Mus musculus, V domains shown) VH: PVQLQQPGAEVVMPGASVKLSCKASGYTFTSFWMNWMRQRPGQGLEWIGEIDPSDFYTNSNQRFKGKATLTVDKSSSTAYMQLSSLTSEDSAVYFCARGDFGWYFDVWGTGTSVTVSS VL: EIVLTQSPTTMTSSPGEKITFTCSASSSINSNYLHWYQQKPGFSPKLLIYRTSNLASGVPTRFSGSGSGTSYSLTIGTMEAEDVATYYCQQGSSLPRTFGGGTKLEIK |  | showed inhibition | loss of binding | without loss of binding
